Source: article PMC5457487, “Structural Basis for Mitotic Centrosome Assembly in Flies” (Cell, 2017)
Residue numbers refer to the chain shown, from its start. Numbers in names are those of the source.

B1: Cnn LZ (GPM-D490-L552) (domain or fragment, Drosophila melanogaster)
chain: GPMDQQNSAVIGQLRLELQQARTEVETADKWRLECVDVCSVLTNRLEELAGFLNSLLKHKDVLGVL
notes: source: E. coli, purified as complex with CM2; not shown: His6, N-terminal, cleaved; MBP, N-terminal, cleaved
B2: Cnn LZ WT (GPM-D490-K544) (domain or fragment, Drosophila melanogaster)
chain: GPMDQQNSAVIGQLRLELQQARTEVETADKWRLECVDVCSVLTNRLEELAGFLNSLLK
notes: Centrosomin (Cnn), Drosophila, LZ domain, aa490-544; Homo-tetramer alone in solution; a parallel homo-dimer in the 2:2 complex with CM2; also called LZ domain; leucine zipper; source: E. coli B834 (DE3), purified (Ni-NTA, SEC; tag cleaved with GST-3C protease, reverse Ni-NTA, SEC); not shown: His6, N-terminal, cleaved; MBP, N-terminal, cleaved
B3: LZ-L535E (domain or fragment, Drosophila melanogaster)
chain: B2 chain with L49E
notes: N-terminal residues as printed for the WT LZ construct of the same vector; Centrosomin (Cnn), Drosophila, LZ domain, aa490-544, L535E; also called LZ (aa490-544 L535E); Cnn_(490-544) L535E; source: E. coli B834 (DE3), purified; not shown: His6, N-terminal, cleaved; MBP, N-terminal, cleaved
B4: Cnn CM2 WT (GGS-H1082-L1148) (domain or fragment, Drosophila melanogaster)
chain: GGSHDCAKVDLENAELRRKLIRTKRAFEDTYEKLRMANKAKAQVEKDIKNQILKTHNVLRNVRSNMENEL
notes: GGS motif left at the N terminus after TEV cleavage; Centrosomin (Cnn), Drosophila, CM2 domain, aa1082-1148; The dimer holds a Zn2+ ion coordinated by H1082 and C1084; also called Cnn-motif 2 domain; Cnn_(1082-1148); source: E. coli C41 (DE3), purified (Ni-NTA, TEV cleavage, SEC); not shown: His-tagged lipoyl domain (Bacillus stearothermophilus dihydrolipoamide acetyltransferase), N-terminal, …
B5: CM2-T1133E (domain or fragment, Drosophila melanogaster)
chain: B4 chain with T55E
notes: GGS motif left after TEV cleavage, as told for the WT CM2 construct of the same vector; Centrosomin (Cnn), Drosophila, CM2 domain, aa1082-1148, T1133E; also called CM2 (aa1082-1148 T1133E); source: E. coli C41 (DE3), purified; not shown: His-tagged lipoyl domain (Bacillus stearothermophilus dihydrolipoamide acetyltransferase), N-terminal, cleaved
B6: CM2-I1126E (domain or fragment, Drosophila melanogaster)
chain: B4 chain with I48E
notes: GGS motif left after TEV cleavage, as told for the WT CM2 construct of the same vector; Centrosomin (Cnn), Drosophila, CM2 domain, aa1082-1148, I1126E; also called CM2 (aa1082-1148 I1126E); source: E. coli C41 (DE3), purified; not shown: His-tagged lipoyl domain (Bacillus stearothermophilus dihydrolipoamide acetyltransferase), N-terminal, cleaved
B7: CM2-L1137E (domain or fragment, Drosophila melanogaster)
chain: B4 chain with L59E
notes: GGS motif left after TEV cleavage, as told for the WT CM2 construct of the same vector; Centrosomin (Cnn), Drosophila, CM2 domain, aa1082-1148, L1137E; also called CM2 (aa1082-1148 L1137E); source: E. coli C41 (DE3), purified; not shown: His-tagged lipoyl domain (Bacillus stearothermophilus dihydrolipoamide acetyltransferase), N-terminal, cleaved
B8: MBP-PReM (domain or fragment, Drosophila melanogaster, UniProt P54623-2 403-608, looked up)
chain: QLQTEVKKKTANLQNLVNKELWEKNREVERLTKLLANQQKTLPQISEESAGEADLQQSFTEAEYMRALERNKLLQRKVDVLFQRLADDQQNSAVIGQLRLELQQARTEVETADKWRLECVDVCSVLTNRLEELAGFLNSLLKHKDVLGVLAADRRNAMRKAVDRSLDLSKSLNMTLNITATSLADQSLAQLCNLSEILYTEGDASH
notes: Centrosomin (Cnn), Drosophila, phospho-regulated multimerization (PReM) domain, aa403-608; also called MBP-PReM fusion; Cnn-PReM (aa403-608); source: E. coli B834 (DE3), purified (Ni-NTA, SEC); not shown: MBP, N-terminal, kept

Key:
[1] = biological target: B4; assay: crystal structure; LZ:CM2 complexes of various LZ lengths and LZ-L535E:CM2; sitting drops, 21°C; conditions: both partners purified
[2] = biological target: the molecule itself; assay: SEC-MALS; S75 10/300 column; 50 mM Tris-HCl pH7.5, 150 mM NaCl, 10 μM ZnCl2, 5 mM β-mercaptoethanol; proteins alone or mixed
[3] = biological target: B4; assay: as above; conditions: both partners purified
[4] = biological target: the molecule itself; assay: SEC-MALS; Superose 6 column; MBP-PReM apo or with addition of CM2 WT or point mutants; 50 mM Tris-HCl pH7.5, 150 mM NaCl, 10 μM ZnCl2, 5 mM β-mercaptoethanol

Row | Binder | stoichiometry N [2] | further results
1 | B1 | – | binding result [1]: binds
2 | B2 | 4 | stoichiometry N [3]: 1 LZ per CM2 (printed as 2:2)
3 | B3 | – | stoichiometry N [3]: 1 LZ per CM2 (printed as 2:2)
4 | B4 | 2 | –
5 | B5 | 2 | –
6 | B6 | 2 | –
7 | B7 | 2 | –
8 | B8 | – | stoichiometry N [4]: 2
